Data reported in the supplement of paper PMC9112550, “Optimization of the antimicrobial peptide Bac7 by deep mutational scanning” (BMC Biology, 2022).

System: Escherichia coli TOP10
Experiment: shrunken log2 fold change of peptide-encoding DNA abundance (4.5 h post-induction vs induction); higher = less antimicrobial activity (less host growth inhibition)
Settings: time post-induction: 4.5 h; library: site-saturation at positions 5, 18, 19, 20
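Note: peptides expressed intracellularly from a pBAD plasmid library in pooled LB shake-flask culture, induced with 0.3% L-arabinose, DNA abundance read by NGS, three biological replicates, DESeq2 with apeglm shrinkage.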

| Sequence | shrunken log2 fold change |
| --- | --- |
| RRIRGRPPRLPRPRPRPLHSPRP | 0.529 |
| RRIRARPPRLPRPRPRPWQEPRP | -0.0122 |
| RRIRYRPPRLPRPRPRPYSYPRP | -0.395 |
| RRIRERPPRLPRPRPRPQHFPRP | 0.131 |
| RRIRHRPPRLPRPRPRPPGPPRP | 0.196 |
| RRIRIRPPRLPRPRPRPHALPRP | -0.127 |
| RRIRHRPPRLPRPRPRPNLCPRP | 0.0613 |
| RRIRNRPPRLPRPRPRPICNPRP | -0.203 |
| RRIRQRPPRLPRPRPRPPENPRP | 0.0912 |
| RRIRIRPPRLPRPRPRPLPQPRP | -0.247 |
| RRIRKRPPRLPRPRPRPEFKPRP | 0.165 |
| RRIRIRPPRLPRPRPRPWYDPRP | -0.0891 |
| RRIRHRPPRLPRPRPRPRVRPRP | 0.0975 |
| RRIRRRPPRLPRPRPRPEEAPRP | 1.51 |
| RRIRFRPPRLPRPRPRPPRCPRP | 0.612 |
| RRIRTRPPRLPRPRPRPMVVPRP | 0.0636 |
| RRIRKRPPRLPRPRPRPPGLPRP | 0.308 |
| RRIRDRPPRLPRPRPRPGTCPRP | -0.0724 |
| RRIRFRPPRLPRPRPRPKFMPRP | -0.542 |
| RRIRKRPPRLPRPRPRPRFDPRP | 0.19 |
| RRIRIRPPRLPRPRPRPMIAPRP | -0.101 |
| RRIRHRPPRLPRPRPRPGYWPRP | -0.151 |
| RRIRVRPPRLPRPRPRPYWPPRP | -0.182 |
| RRIRWRPPRLPRPRPRPTNLPRP | -0.0698 |
| RRIRVRPPRLPRPRPRPAQCPRP | -0.0313 |

| Sequence | shrunken log2 fold change |
| --- | --- |
| RRIRKRPPRLPRPRPRPCFIPRP | -0.13 |
| RRIRCRPPRLPRPRPRPLPFPRP | -0.71 |
| RRIRERPPRLPRPRPRPKIYPRP | -0.165 |
| RRIRNRPPRLPRPRPRPRYCPRP | -0.0932 |
| RRIRHRPPRLPRPRPRPKERPRP | -0.0122 |
| RRIRGRPPRLPRPRPRPEKHPRP | 0.617 |
| RRIRYRPPRLPRPRPRPIAVPRP | -0.321 |
| RRIRMRPPRLPRPRPRPVRGPRP | 1.18 |
| RRIRYRPPRLPRPRPRPALQPRP | -0.1 |
| RRIRPRPPRLPRPRPRPHDYPRP | -0.0318 |
| RRIRIRPPRLPRPRPRPNYEPRP | -0.396 |
| RRIRFRPPRLPRPRPRPCCPPRP | -0.468 |
| RRIRRRPPRLPRPRPRPYIEPRP | -0.338 |
| RRIRNRPPRLPRPRPRPADIPRP | -0.183 |
| RRIRGRPPRLPRPRPRPCWAPRP | 0.485 |
| RRIRLRPPRLPRPRPRPFGMPRP | -0.205 |
| RRIRTRPPRLPRPRPRPALAPRP | 0.425 |
| RRIRNRPPRLPRPRPRPNFTPRP | -0.197 |
| RRIRSRPPRLPRPRPRPRRIPRP | 0.135 |
| RRIRPRPPRLPRPRPRPSASPRP | 2.33 |
| RRIRRRPPRLPRPRPRPQGNPRP | 0.0869 |
| RRIRIRPPRLPRPRPRPEWIPRP | 0.0384 |
| RRIRTRPPRLPRPRPRPDWSPRP | 0.163 |
| RRIRQRPPRLPRPRPRPCVDPRP | 0.148 |
| RRIRGRPPRLPRPRPRPTPTPRP | 0.98 |

| Sequence | shrunken log2 fold change |
| --- | --- |
| RRIRWRPPRLPRPRPRPPIIPRP | -0.151 |
| RRIRLRPPRLPRPRPRPEQWPRP | -0.00018 |
| RRIRLRPPRLPRPRPRPHLRPRP | -0.151 |
| RRIRMRPPRLPRPRPRPLAVPRP | 0.328 |
| RRIRIRPPRLPRPRPRPFKMPRP | -0.568 |
| RRIRARPPRLPRPRPRPFFKPRP | -0.0427 |
| RRIRSRPPRLPRPRPRPGACPRP | 0.0577 |
| RRIRIRPPRLPRPRPRPTSCPRP | -0.0992 |
| RRIRWRPPRLPRPRPRPEMTPRP | -0.0833 |
| RRIRHRPPRLPRPRPRPISTPRP | -0.578 |
| RRIRYRPPRLPRPRPRPAEFPRP | -0.266 |
| RRIRERPPRLPRPRPRPMFSPRP | -0.104 |
| RRIRTRPPRLPRPRPRPPESPRP | -0.0298 |
| RRIRCRPPRLPRPRPRPKLPPRP | -0.0559 |
| RRIRCRPPRLPRPRPRPTPDPRP | 0.857 |
| RRIRNRPPRLPRPRPRPMRNPRP | 0.115 |
| RRIRPRPPRLPRPRPRPDLTPRP | 0.168 |
| RRIRKRPPRLPRPRPRPGTGPRP | 0.1 |
| RRIRLRPPRLPRPRPRPAPFPRP | -0.0923 |
| RRIRCRPPRLPRPRPRPPLGPRP | 0.807 |
| RRIRLRPPRLPRPRPRPAKSPRP | -0.0164 |
| RRIRNRPPRLPRPRPRPFFYPRP | -0.242 |
| RRIRDRPPRLPRPRPRPQGPPRP | 0.0365 |
| RRIRVRPPRLPRPRPRPIQAPRP | -0.0344 |
| RRIRHRPPRLPRPRPRPNGTPRP | -0.297 |

| Sequence | shrunken log2 fold change |
| --- | --- |
| RRIRHRPPRLPRPRPRPDMEPRP | -0.336 |
| RRIRFRPPRLPRPRPRPRCSPRP | 0.717 |
| RRIRFRPPRLPRPRPRPENQPRP | -0.00277 |
| RRIRIRPPRLPRPRPRPKDRPRP | -0.409 |
| RRIRDRPPRLPRPRPRPPDPPRP | 0.931 |
| RRIRYRPPRLPRPRPRPTQLPRP | -0.46 |
| RRIRRRPPRLPRPRPRPTNIPRP | -0.304 |
| RRIRKRPPRLPRPRPRPNWEPRP | 0.0515 |
| RRIRSRPPRLPRPRPRPHINPRP | -0.607 |
| RRIRRRPPRLPRPRPRPPAMPRP | 0.814 |
| RRIRWRPPRLPRPRPRPQMPPRP | 0.135 |
| RRIRWRPPRLPRPRPRPLHKPRP | 0.0164 |
| RRIRHRPPRLPRPRPRPVETPRP | 0.0401 |
| RRIRNRPPRLPRPRPRPYGSPRP | -0.0603 |
| RRIRPRPPRLPRPRPRPPCRPRP | 0.339 |
| RRIRIRPPRLPRPRPRPGAPPRP | 0.416 |
| RRIRVRPPRLPRPRPRPDVAPRP | -0.0974 |
| RRIRRRPPRLPRPRPRPCEDPRP | 0.0155 |
| RRIRCRPPRLPRPRPRPFAIPRP | -0.682 |
| RRIRERPPRLPRPRPRPYWIPRP | -0.376 |
| RRIRIRPPRLPRPRPRPFHAPRP | -0.388 |
| RRIRSRPPRLPRPRPRPVHSPRP | 0.139 |
| RRIRSRPPRLPRPRPRPQYNPRP | -0.863 |
| RRIRTRPPRLPRPRPRPAYWPRP | -0.017 |
| RRIRGRPPRLPRPRPRPVIQPRP | 0.0682 |

| Sequence | shrunken log2 fold change |
| --- | --- |
| RRIRERPPRLPRPRPRPENTPRP | -0.354 |
| RRIRDRPPRLPRPRPRPNDWPRP | -0.0967 |
| RRIRMRPPRLPRPRPRPVHNPRP | -0.0275 |
| RRIRPRPPRLPRPRPRPEMQPRP | 1.05 |
| RRIRARPPRLPRPRPRPGPSPRP | 0.6 |
| RRIRFRPPRLPRPRPRPDYYPRP | -1.21 |
| RRIRQRPPRLPRPRPRPMHSPRP | -0.165 |
| RRIRGRPPRLPRPRPRPDHEPRP | 0.858 |
| RRIRRRPPRLPRPRPRPRKVPRP | 0.602 |
| RRIRPRPPRLPRPRPRPMWSPRP | -0.276 |
| RRIRDRPPRLPRPRPRPGQDPRP | 0.945 |
| RRIRARPPRLPRPRPRPSCIPRP | -0.131 |
| RRIRKRPPRLPRPRPRPEHQPRP | 0.163 |
| RRIRDRPPRLPRPRPRPERYPRP | 0.00592 |
| RRIRGRPPRLPRPRPRPWTEPRP | 0.128 |
| RRIRHRPPRLPRPRPRPFDMPRP | -0.00783 |
| RRIRERPPRLPRPRPRPLDQPRP | 0.09 |
| RRIRFRPPRLPRPRPRPCPAPRP | 1.36 |
| RRIRARPPRLPRPRPRPDMMPRP | 0.139 |
| RRIRFRPPRLPRPRPRPNAPPRP | 0.0925 |
| RRIRDRPPRLPRPRPRPSFQPRP | -0.0455 |
| RRIRIRPPRLPRPRPRPELDPRP | 0.0332 |
| RRIRNRPPRLPRPRPRPHQEPRP | -0.00146 |
| RRIRWRPPRLPRPRPRPFIEPRP | -0.441 |
| RRIRHRPPRLPRPRPRPIWGPRP | 0.226 |

| Sequence | shrunken log2 fold change |
| --- | --- |
| RRIRNRPPRLPRPRPRPIVFPRP | -0.207 |
| RRIRPRPPRLPRPRPRPMDPPRP | 0.0118 |
| RRIRSRPPRLPRPRPRPDVWPRP | 0.49 |
| RRIRCRPPRLPRPRPRPCSFPRP | -0.57 |
| RRIRWRPPRLPRPRPRPQRSPRP | 0.172 |
| RRIRHRPPRLPRPRPRPIWAPRP | 0.0355 |
| RRIRRRPPRLPRPRPRPPYPPRP | 0.245 |
| RRIRKRPPRLPRPRPRPRSAPRP | 0.884 |
| RRIRERPPRLPRPRPRPSGQPRP | -0.148 |
| RRIRQRPPRLPRPRPRPNMCPRP | -0.195 |
| RRIRKRPPRLPRPRPRPQQTPRP | -0.0533 |
| RRIRLRPPRLPRPRPRPEHAPRP | -0.00513 |
| RRIRGRPPRLPRPRPRPAVQPRP | 0.797 |
| RRIRQRPPRLPRPRPRPMKYPRP | -0.498 |
| RRIRARPPRLPRPRPRPVTEPRP | 0.154 |
| RRIRRRPPRLPRPRPRPDIPPRP | -0.22 |
| RRIRNRPPRLPRPRPRPITPPRP | 0.119 |
| RRIRQRPPRLPRPRPRPPKVPRP | 2.65e-05 |
| RRIRGRPPRLPRPRPRPPMHPRP | 0.95 |
| RRIRIRPPRLPRPRPRPTETPRP | 0.0225 |
| RRIRVRPPRLPRPRPRPQGPPRP | 0.107 |
| RRIRKRPPRLPRPRPRPFNVPRP | -0.172 |
| RRIRVRPPRLPRPRPRPWPNPRP | 0.179 |
| RRIRCRPPRLPRPRPRPPLYPRP | 0.429 |
| RRIRRRPPRLPRPRPRPILQPRP | 1.83 |
